What was measured:
[1] = biological target: ASB7-Elongin B-Elongin C ternary complex (wild-type ASB7, residues 11-318) (human) (UniProt Q9H672); experiment: ITC; peptide in the syringe titrated into ASB7-Elongin B/C in the cell; MicroCal PEAQ-ITC, 16 °C, 20 mM Tris-HCl pH 7.5, 150 mM NaCl; 39–156 μM protein, 0.8–4 mM peptide; repeated three times, mean ± SD
[2] = biological target: ASB7 Arg185-to-alanine mutant in complex with Elongin B/C (human) (UniProt Q9H672); experiment: ITC; peptide (0.8–4 mM) titrated into the ASB7 complex (39–156 µM); 16 °C; 20 mM Tris-HCl pH 7.5, 150 mM NaCl; MicroCal PEAQ-ITC
[3] = biological target: ASB7 D116A mutant in complex with Elongin B/C (human) (UniProt Q9H672); experiment: as above
[4] = biological target: ASB7 Phe182 alanine mutant in complex with Elongin B/C (human) (UniProt Q9H672); experiment: as above
[5] = biological target: ASB7 R160A mutant in complex with Elongin B/C (human) (UniProt Q9H672); experiment: as above
[6] = biological target: ASB7 with Trp118 in ANK3 or Phe82 in ANK4 replaced with alanine; experiment: as above

| Kd [1] [nM] | stoichiometry N [1] | fold decrease in binding affinity against wild-type ASB7 [2] [fold] | fold reduction in binding against wild-type ASB7 [3] [fold] | fold decrease in binding affinity against wild-type ASB7 [4] [fold] | fold decrease in binding affinity against wild-type ASB7 [5] [fold] | fold decrease in binding affinity against wild-type ASB7 [6] [fold] | Substance |
| --- | --- | --- | --- | --- | --- | --- | --- |
| 600 | 0.75 | – | – | – | – | – | LZTS1 degron peptide, 22 residues (…) |
| – | – | 4 | 7 | 3 | 3 | 10 to 30 | LZTS1-degron 23-residue peptide |
